Values belong to the molecule of their own block, whether it stands above or below them.
Assays:
Experiment in all cases: SEC
[1] = molecular target: hrCD5-His (human CD5 domain 1 and rat CD5 domains 2 and 3, His tag) (human | rat)
[2] = molecular target: mCD5-His (extracellular region of mouse CD5 fused to a His tag) (mouse)
SEC = molecular target: the molecule itself

- stoichiometry N [1]: 2
Molecule: hrCD5-His (human CD5 domain 1 and rat CD5 domains 2 and 3, His tag)

- stoichiometry N [2]: 2
Molecule: mCD5-His (extracellular region of mouse CD5 fused to a His tag) (domain or fragment)

B1: hCD5-His (extracellular region of human CD5 fused to a His tag) (domain or fragment, UniProt P06127 25-372, looked up)
chain: RLSWYDPDFQARLTRSNSKCQGQLEVYLKDGWHMVCSQSWGRSSKQWEDPSQASKVCQRLNCGVPLSLGPFLVTYTPQSSIICYGQLGSFSNCSHSRNDMCHSLGLTCLEPQKTTPPTTRPPPTTTPEPTAPPRLQLVAQSGGQHCAGVVEFYSGSLGGTISYEAQDKTQDLENFLCNNLQCGSFLKHLPETEAGRAQDPGEPREHQPLPIQWKIQNSSCTSLEHCFRKIKPQKSGRVLALLCSGFQPKVQSRLVGGSSICEGTVEVRQGAQWAALCDSSSARSSLRWEEVCREQQCGSVNSYRVLDAGDPTSRGLFCPHQKLSQCHELWERNSYCKKVFVTCQDPNP
- stoichiometry N (SEC): 2
